The experiment has as its target T1, Utp22 (S. cerevisiae, UniProt P53254 1-1237).
T1 construct: Utp22, yeast, 1,237 residues, amplified from yeast genomic DNA, cloned with no tag; Residues 1-80 and several internal loops are not visible in the crystal; A selenomethionine-labelled form was used for phasing; source: High Five insect cells, recombinant baculovirus, coexpressed with Rrp7, copurified (HisTrap, heparin, Superdex 200)
T1 sequence (looked up): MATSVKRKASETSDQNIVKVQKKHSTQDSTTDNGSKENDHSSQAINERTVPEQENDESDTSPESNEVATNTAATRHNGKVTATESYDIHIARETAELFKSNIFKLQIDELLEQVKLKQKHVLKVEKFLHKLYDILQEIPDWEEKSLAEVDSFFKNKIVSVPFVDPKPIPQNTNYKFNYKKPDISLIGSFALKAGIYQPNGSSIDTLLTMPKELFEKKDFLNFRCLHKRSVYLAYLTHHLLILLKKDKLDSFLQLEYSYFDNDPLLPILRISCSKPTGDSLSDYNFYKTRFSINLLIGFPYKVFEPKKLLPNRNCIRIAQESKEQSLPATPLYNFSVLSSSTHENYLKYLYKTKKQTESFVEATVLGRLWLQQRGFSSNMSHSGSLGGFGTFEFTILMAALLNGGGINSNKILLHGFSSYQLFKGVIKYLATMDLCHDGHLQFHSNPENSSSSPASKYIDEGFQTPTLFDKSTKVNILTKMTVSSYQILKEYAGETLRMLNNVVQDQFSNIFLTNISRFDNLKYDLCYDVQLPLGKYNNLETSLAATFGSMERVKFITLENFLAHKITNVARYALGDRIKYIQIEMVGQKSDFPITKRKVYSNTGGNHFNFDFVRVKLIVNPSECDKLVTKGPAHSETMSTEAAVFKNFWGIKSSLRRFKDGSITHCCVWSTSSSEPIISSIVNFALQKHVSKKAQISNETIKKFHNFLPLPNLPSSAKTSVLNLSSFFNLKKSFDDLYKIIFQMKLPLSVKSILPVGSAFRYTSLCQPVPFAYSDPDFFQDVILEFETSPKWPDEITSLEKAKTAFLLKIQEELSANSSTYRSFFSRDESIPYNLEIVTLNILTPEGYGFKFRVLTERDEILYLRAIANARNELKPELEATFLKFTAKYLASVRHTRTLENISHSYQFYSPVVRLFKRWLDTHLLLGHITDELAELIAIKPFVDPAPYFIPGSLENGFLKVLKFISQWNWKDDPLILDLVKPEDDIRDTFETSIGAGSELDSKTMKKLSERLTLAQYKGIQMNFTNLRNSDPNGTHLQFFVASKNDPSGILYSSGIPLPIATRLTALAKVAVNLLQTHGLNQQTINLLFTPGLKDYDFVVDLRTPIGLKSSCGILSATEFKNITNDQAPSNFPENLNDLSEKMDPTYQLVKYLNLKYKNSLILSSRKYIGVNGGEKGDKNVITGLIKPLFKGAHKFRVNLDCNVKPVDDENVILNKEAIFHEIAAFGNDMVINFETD
The experiment is described as follows: crystal structure; Utp22 and Rrp7 coexpressed in insect cells, copurified and cocrystallised; hanging drop, 20°C, 100 mM sodium cacodylate pH 6.2–6.5, 30% PEG 400, 200 mM lithium sulfate; refined to 1.97 Å. The following applies: both partners purified.

B1: Rrp7 (natural protein, S. cerevisiae, UniProt P25368 1-297, looked up)
chain: MGIEDISAMKNGFIVVPFKLPDHKALPKSQEASLHFMFAKRHQSSNSNESDCLFLVNLPLLSNIEHMKKFVGQLCGKYDTVSHVEELLYNDEFGLHEVDLSALTSDLMSSTDVNEKRYTPRNTALLKFVDAASINNCWNALKKYSNLHAKHPNELFEWTYTTPSFTTFVNFYKPLDIDYLKEDIHTHMAIFEQREAQAQEDVQSSIVDEDGFTLVVGKNTKSLNSIRKKILNKNPLSKHENKAKPISNIDKKAKKDFYRFQVRERKKQEINQLLSKFKEDQERIKVMKAKRKFNPYT
notes: N-terminal His6-tag followed by a PreScission site, cleaved with PreScission protease; source: High Five insect cells, recombinant baculovirus, coexpressed with Utp22, copurified (HisTrap, heparin, Superdex 200); not shown: His6, N-terminal, cleaved
As to B1, the binding result was “binds”.
